The record followed here is US20260152568A1 (NECTIN THERAPEUTICS, published 2026).

Experiment [1] addresses T1, human PVR (SPR of the humanized variants, Example 5) (human, UniProt P15151 21-343).
T1 sequence: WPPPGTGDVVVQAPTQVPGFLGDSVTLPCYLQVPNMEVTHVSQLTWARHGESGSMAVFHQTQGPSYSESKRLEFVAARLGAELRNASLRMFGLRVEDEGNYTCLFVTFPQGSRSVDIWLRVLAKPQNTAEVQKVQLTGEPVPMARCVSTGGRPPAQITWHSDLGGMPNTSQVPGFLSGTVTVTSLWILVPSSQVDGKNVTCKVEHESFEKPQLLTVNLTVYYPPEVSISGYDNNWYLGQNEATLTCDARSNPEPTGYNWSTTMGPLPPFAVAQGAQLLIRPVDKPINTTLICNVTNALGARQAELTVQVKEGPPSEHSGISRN
The experiment is described as follows: SPR. A general note: In SPR one partner is held on a chip, and binding of the other changes the refractive index at the surface.

Experiment [2] deals with human poliovirus receptor (PVR, CD155) expressed on cells (human) (UniProt P15151). The experiment is described as follows: flow cytometry, binding to PVR-expressing HEK 293 cells; relative to N56E VH0/Vκ0.
For experiment [3] the target is unchanged. The experiment is described as follows: flow cytometry, binding to PVR-expressing HEK 293 cells. In general terms: Flow cytometry measures light scatter and fluorescence of single cells or particles in a stream.
The target in experiment [4] is T1, human PVR (SPR of the humanized …). The experiment is described as follows: SPR; relative to N56E VH0/Vκ0.

B1: humanized 5B9 variant VH3/VK2 (antibody, V domains shown)
VH: QVQLVQSGAEVKKPGASVKVSCKATGYTFSNYWIEWIKQAPGQGLEWIGEIFPGSGRINFNEKFKGRVTFTADTSISTTYMELSRLRSDDTAVYYCARTKIYGNSFDYWGQGTLVTVSS
VL: DIQMTQSPSSLSASVGDRVTITCKASQDVGTAVVWYQQKPGKAPKLLIYWASSRHEGVPDRFSGSGSGTDFTLTISSLQPEDFADYFCQQYSRYPLTFGQGTKLEIK
In general, Kd refers to the constant that tells how readily two partners part at equilibrium. Lower therefore signals higher affinity. Broadly, the EC50 is the concentration needed to bring the measured effect to its halfway point. B1: in experiment [1], binding was put at a Kd of 4.32 nM. The Relative EC50 in experiment [2] is 0.66. For the same molecule, in experiment [3], the EC50 came out at 0.52 nM. For the same molecule, the “Relative KD” value in experiment [4] came to 0.78.

B2: humanized 5B9 variant VH1/VK1 (antibody, V domains shown)
VH: QVQLVQSGAELKKPGASVKISCKATGYTFSNYWIEWIKQAPGQGLEWIGEIFPGSGRINFNEKFKGRATFTADTSIDTTYMQLSSLTSDDSAVYYCARTKIYGNSFDYWGQGTTVTVSS
VL: DIMMTQSPSFLSASVGDRVTITCKASQDVGTAVVWYQQKPGKAPKLLIYWASSRHEGVPDRFTGSGSGTDFTLTISSLQSEDFADYFCQQYSRYPLTFGQGTKLEIK
For the molecule B2, the dissociation constant (Kd) in experiment [1] is 4.17 nM. For the same molecule, the “Relative KD” value in experiment [4] turned out to be 0.75.

B3: IgG4(S241P)_N56E_VH0/Vκ1 (antibody, V domains shown)
VH: QVQLQQSGAELMKPGASVKISCKATGYTFSNYWIEWIKQRPGHGLEWIGEIFPGSGRINFNEKFKGKATFTADTSSDTTYMQLSSLTSADSAVYYCARTKIYGNSFDYWGQGTTLTVSP
VL: DIMMTQSPSFLSASVGDRVTITCKASQDVGTAVVWYQQKPGKAPKLLIYWASSRHEGVPDRFTGSGSGTDFTLTISSLQSEDFADYFCQQYSRYPLTFGQGTKLEIK
notes: half-humanized control pairing; also called VH0/Vk1
In experiment [1], B3 yielded an equilibrium dissociation constant (Kd) of 4.03 nM. In addition, the “Relative KD” value in experiment [4] was 0.73.

B4: IgG4(S241P)_N56E_VH1/Vκ4 (antibody, V domains shown)
VH: QVQLVQSGAELKKPGASVKISCKATGYTFSNYWIEWIKQAPGQGLEWIGEIFPGSGRINFNEKFKGRATFTADTSIDTTYMQLSSLTSDDSAVYYCARTKIYGNSFDYWGQGTTVTVSS
VL: DIQMTQSPSSLSASVGDRVTITCRASQDVGTAVAWYQQKPGKAPKSLIYWASSRHEGVPSRFSGSGSGTDFTLTISSLQPEDFATYFCQQYSRYPLTFGQGTKLEIK
notes: humanized 5B9 variant with Vk4; also called VH1/Vk4
B4 registered a Kd in experiment [1] of 69.3 nM. For the same molecule, the “Relative KD” value in experiment [4] came out at 12.5.

B5: IgG4(S241P)_N56E_VH5/Vκ4 (antibody, V domains shown)
VH: QVQLVQSGAEVKKPGASVKVSCKATGYTFSNYWIEWVRQAPGQGLEWMGEIFPGSGRINFNEKFKGRVTFTADTSISTAYMELSRLRSDDTAVYYCARTKIYGNSFDYWGQGTLVTVSS
VL: DIQMTQSPSSLSASVGDRVTITCRASQDVGTAVAWYQQKPGKAPKSLIYWASSRHEGVPSRFSGSGSGTDFTLTISSLQPEDFATYFCQQYSRYPLTFGQGTKLEIK
notes: humanized 5B9 variant with Vk4; also called VH5/Vk4
As for B5, binding in experiment [1] was put at a Kd of 76.8 nM. The “Relative KD” value in experiment [4] came to 13.9.

B6: humanized 5B9 variant VH5/VK1 (antibody, V domains shown)
VH: QVQLVQSGAEVKKPGASVKVSCKATGYTFSNYWIEWVRQAPGQGLEWMGEIFPGSGRINFNEKFKGRVTFTADTSISTAYMELSRLRSDDTAVYYCARTKIYGNSFDYWGQGTLVTVSS
VL: DIMMTQSPSFLSASVGDRVTITCKASQDVGTAVVWYQQKPGKAPKLLIYWASSRHEGVPDRFTGSGSGTDFTLTISSLQSEDFADYFCQQYSRYPLTFGQGTKLEIK
B6 had a Kd in experiment [1] of 5.91 nM. In experiment [4], the “Relative KD” value is 1.07.

B7: humanized 5B9 variant VH4/VK1 (antibody, V domains shown)
VH: QVQLVQSGAEVKKPGASVKVSCKATGYTFSNYWIEWVRQAPGQGLEWIGEIFPGSGRINFNEKFKGRVTFTADTSISTTYMELSRLRSDDTAVYYCARTKIYGNSFDYWGQGTLVTVSS
VL: DIMMTQSPSFLSASVGDRVTITCKASQDVGTAVVWYQQKPGKAPKLLIYWASSRHEGVPDRFTGSGSGTDFTLTISSLQSEDFADYFCQQYSRYPLTFGQGTKLEIK
In turn, B7 returned a dissociation constant Kd in experiment [1] of 4.62 nM. Moreover, the “Relative KD” value in experiment [4] is 0.83.

B8: humanized 5B9 variant VH2/VK2 (antibody, V domains shown)
VH: QVQLVQSGAEVKKPGASVKISCKATGYTFSNYWIEWIKQAPGQGLEWIGEIFPGSGRINFNEKFKGRATFTADTSIDTTYMELSRLRSDDTAVYYCARTKIYGNSFDYWGQGTLVTVSS
VL: DIQMTQSPSSLSASVGDRVTITCKASQDVGTAVVWYQQKPGKAPKLLIYWASSRHEGVPDRFSGSGSGTDFTLTISSLQPEDFADYFCQQYSRYPLTFGQGTKLEIK
Molecule B8 showed a Kd in experiment [1] of 4.67 nM. Besides, in experiment [2], the Relative EC50 stood at 0.81. The molecule also came in with an EC50 in experiment [3] of 0.64 nM. Also, the “Relative KD” value in experiment [4] came out at 0.84.

B9: IgG4(S241P)_N56E_VH2/Vκ4 (antibody, V domains shown)
VH: QVQLVQSGAEVKKPGASVKISCKATGYTFSNYWIEWIKQAPGQGLEWIGEIFPGSGRINFNEKFKGRATFTADTSIDTTYMELSRLRSDDTAVYYCARTKIYGNSFDYWGQGTLVTVSS
VL: DIQMTQSPSSLSASVGDRVTITCRASQDVGTAVAWYQQKPGKAPKSLIYWASSRHEGVPSRFSGSGSGTDFTLTISSLQPEDFATYFCQQYSRYPLTFGQGTKLEIK
notes: humanized 5B9 variant with Vk4; also called VH2/Vk4
Molecule B9 registered a dissociation constant (Kd) in experiment [1] of 78.3 nM. Also, the “Relative KD” value in experiment [4] was found to be 14.1.

B10: humanized 5B9 variant VH3/VK1 (antibody, V domains shown)
VH: QVQLVQSGAEVKKPGASVKVSCKATGYTFSNYWIEWIKQAPGQGLEWIGEIFPGSGRINFNEKFKGRVTFTADTSISTTYMELSRLRSDDTAVYYCARTKIYGNSFDYWGQGTLVTVSS
VL: DIMMTQSPSFLSASVGDRVTITCKASQDVGTAVVWYQQKPGKAPKLLIYWASSRHEGVPDRFTGSGSGTDFTLTISSLQSEDFADYFCQQYSRYPLTFGQGTKLEIK
In the case of B10, in experiment [1], the dissociation constant (Kd) was 4.56 nM. The “Relative KD” value in experiment [4] was found to be 0.82.

B11: humanized 5B9 variant VH1/VK3 (antibody, V domains shown)
VH: QVQLVQSGAELKKPGASVKISCKATGYTFSNYWIEWIKQAPGQGLEWIGEIFPGSGRINFNEKFKGRATFTADTSIDTTYMQLSSLTSDDSAVYYCARTKIYGNSFDYWGQGTTVTVSS
VL: DIQMTQSPSSLSASVGDRVTITCRASQDVGTAVVWYQQKPGKAPKLLIYWASSRHEGVPSRFSGSGSGTDFTLTISSLQPEDFATYFCQQYSRYPLTFGQGTKLEIK
For the molecule B11, the affinity in experiment [1], expressed as Kd, was 4.98 nM. Further, the “Relative KD” value in experiment [4] worked out at 0.9.

B12: IgG4(S241P)_N56E_VH3/Vκ4 (antibody, V domains shown)
VH: QVQLVQSGAEVKKPGASVKVSCKATGYTFSNYWIEWIKQAPGQGLEWIGEIFPGSGRINFNEKFKGRVTFTADTSISTTYMELSRLRSDDTAVYYCARTKIYGNSFDYWGQGTLVTVSS
VL: DIQMTQSPSSLSASVGDRVTITCRASQDVGTAVAWYQQKPGKAPKSLIYWASSRHEGVPSRFSGSGSGTDFTLTISSLQPEDFATYFCQQYSRYPLTFGQGTKLEIK
notes: humanized 5B9 variant with Vk4, as IgG4; also called VH3/Vk4
For the molecule B12, the dissociation constant Kd in experiment [1] is 75.2 nM. Also, the “Relative KD” value in experiment [4] turned out to be 13.6.

B13: humanized 5B9 variant VH2/VK1 (antibody, V domains shown)
VH: QVQLVQSGAEVKKPGASVKISCKATGYTFSNYWIEWIKQAPGQGLEWIGEIFPGSGRINFNEKFKGRATFTADTSIDTTYMELSRLRSDDTAVYYCARTKIYGNSFDYWGQGTLVTVSS
VL: DIMMTQSPSFLSASVGDRVTITCKASQDVGTAVVWYQQKPGKAPKLLIYWASSRHEGVPDRFTGSGSGTDFTLTISSLQSEDFADYFCQQYSRYPLTFGQGTKLEIK
B13 returned an equilibrium dissociation constant (Kd) in experiment [1] of 3.96 nM. Further, in experiment [4], the “Relative KD” value was 0.71.

B14: humanized 5B9 variant VH1/VK2 (antibody, V domains shown)
VH: QVQLVQSGAELKKPGASVKISCKATGYTFSNYWIEWIKQAPGQGLEWIGEIFPGSGRINFNEKFKGRATFTADTSIDTTYMQLSSLTSDDSAVYYCARTKIYGNSFDYWGQGTTVTVSS
VL: DIQMTQSPSSLSASVGDRVTITCKASQDVGTAVVWYQQKPGKAPKLLIYWASSRHEGVPDRFSGSGSGTDFTLTISSLQPEDFADYFCQQYSRYPLTFGQGTKLEIK
As for B14, in experiment [1], the Kd was 4.01 nM. Also, the “Relative KD” value in experiment [4] stood at 0.72.

B15: IgG4(S241P)_N56E_VH1/Vκ0 (antibody, V domains shown)
VH: QVQLVQSGAELKKPGASVKISCKATGYTFSNYWIEWIKQAPGQGLEWIGEIFPGSGRINFNEKFKGRATFTADTSIDTTYMQLSSLTSDDSAVYYCARTKIYGNSFDYWGQGTTVTVSS
VL: DIMMTQSHKFMSTSVGDRVNITCKASQDVGTAVVWYQQKPGQSPKLLIYWASSRHEGVPDRFTGSGSGTDFTLTISNVQSEDLSDYFCQQYSRYPLTFGAGTKLELK
notes: half-humanized control pairing; also called VH1/Vk0
As for B15, in experiment [1], the Kd is 4.5 nM. For the same molecule, the “Relative KD” value in experiment [4] was found to be 0.81.

B16: humanized 5B9 variant VH3/VK3 (antibody, V domains shown)
VH: QVQLVQSGAEVKKPGASVKVSCKATGYTFSNYWIEWIKQAPGQGLEWIGEIFPGSGRINFNEKFKGRVTFTADTSISTTYMELSRLRSDDTAVYYCARTKIYGNSFDYWGQGTLVTVSS
VL: DIQMTQSPSSLSASVGDRVTITCRASQDVGTAVVWYQQKPGKAPKLLIYWASSRHEGVPSRFSGSGSGTDFTLTISSLQPEDFATYFCQQYSRYPLTFGQGTKLEIK
Molecule B16 registered an equilibrium dissociation constant (Kd) in experiment [1] of 5.42 nM. Besides, the Relative EC50 in experiment [2] came to 0.68. Besides, the EC50 in experiment [3] is 0.53 nM. Also, in experiment [4], the “Relative KD” value is 0.98.

B17: humanized 5B9 variant VH2/VK3 (antibody, V domains shown)
VH: QVQLVQSGAEVKKPGASVKISCKATGYTFSNYWIEWIKQAPGQGLEWIGEIFPGSGRINFNEKFKGRATFTADTSIDTTYMELSRLRSDDTAVYYCARTKIYGNSFDYWGQGTLVTVSS
VL: DIQMTQSPSSLSASVGDRVTITCRASQDVGTAVVWYQQKPGKAPKLLIYWASSRHEGVPSRFSGSGSGTDFTLTISSLQPEDFATYFCQQYSRYPLTFGQGTKLEIK
B17 had a Kd in experiment [1] of 5.14 nM. For the same molecule, in experiment [2], the Relative EC50 was 0.76. Further, in experiment [3], the EC50 came to 0.6 nM. Moreover, the “Relative KD” value in experiment [4] was 0.93.
